Target: T1, purified Get1-PC and Get2-HA reconstituted in proteoliposomes (yeast, UniProt P53192 1-235; P40056 1-285)
T1 construct: Get1 (Mdm39), yeast; construct details in the Supplemental Data; Get2 (Rmd7, Hur2), yeast; also called +Get1/+Get2; Get1/Get2 complex; source: copurified from yeast, reconstituted into proteoliposomes
T1 sequence (looked up) 1: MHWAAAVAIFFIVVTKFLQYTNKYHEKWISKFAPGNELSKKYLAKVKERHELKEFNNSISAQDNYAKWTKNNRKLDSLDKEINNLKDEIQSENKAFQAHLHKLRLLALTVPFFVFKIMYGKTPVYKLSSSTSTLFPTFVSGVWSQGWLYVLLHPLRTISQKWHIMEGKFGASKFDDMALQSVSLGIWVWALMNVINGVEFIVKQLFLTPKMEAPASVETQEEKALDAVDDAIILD
T1 sequence (looked up) 2: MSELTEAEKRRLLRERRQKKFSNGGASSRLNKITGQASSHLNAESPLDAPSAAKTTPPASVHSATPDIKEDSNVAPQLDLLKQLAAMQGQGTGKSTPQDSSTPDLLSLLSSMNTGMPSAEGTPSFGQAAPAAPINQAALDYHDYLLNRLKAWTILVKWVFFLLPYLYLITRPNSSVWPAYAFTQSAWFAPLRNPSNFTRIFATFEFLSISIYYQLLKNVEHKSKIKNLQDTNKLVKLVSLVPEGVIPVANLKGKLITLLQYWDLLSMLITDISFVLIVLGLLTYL
Assay: co-sedimentation; recombinant Get3 incubated with proteoliposomes reconstituted with purified Get1-PC and Get2-HA or with Phs1 as control; Optiprep gradient fractions blotted with αGet3 or αPhs1
Conditions: both partners purified

B1: recombinant Get3 ATPase (enzyme, yeast, UniProt Q12154 1-354, looked up)
chain: MDLTVEPNLHSLITSTTHKWIFVGGKGGVGKTTSSCSIAIQMALSQPNKQFLLISTDPAHNLSDAFGEKFGKDARKVTGMNNLSCMEIDPSAALKDMNDMAVSRANNNGSDGQGDDLGSLLQGGALADLTGSIPGIDEALSFMEVMKHIKRQEQGEGETFDTVIFDTAPTGHTLRFLQLPNTLSKLLEKFGEITNKLGPMLNSFMGAGNVDISGKLNELKANVETIRQQFTDPDLTTFVCVCISEFLSLYETERLIQELISYDMDVNSIIVNQLLFAENDQEHNCKRCQARWKMQKKYLDQIDELYEDFHVVKMPLCAGEIRGLNNLTKFSQFLNKEYNPITDGKVIYELEDKE
notes: Get3 (Arr4), yeast homolog of Asna1/TRC40, soluble cytosolic ATPase; also called Arr4; source: purified from Escherichia coli (Metz et al., 2006)
binding result: binds

— PMC2572727, “The GET Complex Mediates Insertion of Tail-Anchored Proteins into the ER Membrane” (Cell, 2008)
